Measured values published in the DeepSol protein solubility set.

Test: soluble on expression in E. coli; label from the status in PepcDB or PDB records

Row | Sequence | soluble on expression in E. coli
1 | MAHHHHHHMKRPWGESVGTQSNHTRTDGVQEPSASAELAASANDDTQVRSDGRNVRVRSSGSPRTIDTGNGGGSTVVSPQRQLSDQRLPQASSRHELLEGTSEFLLRTEGNIPCSFGNVPKDSIGYESQCCWNLYNNTGTTHYEPPWRTCLAVEKNRENPYYLPWLDSMKIPPLDELLSKVDERKSKAATSGDVDSGTNDSNVKDGSTKHAD | soluble
2 | MAHHHHHHMKRSRFDGKAPSFAPAVTMHPQQQQRIEERGANNRVVVNSPYGCSRARYGWGMPFHTPLLAYVPGCPAIHIGISSLSGVPGRDRRMKTLFAQYAKKFNSLEHCYTFHNMGEETMWKNWRDMCASQLVASSSHSPASLGCVQTSDNGNQKSPPFIFSIKANQYLTHTRMLAIDDKSEEHIMHFFVNRCSILGRHLGPVLLQLPPQFQKNHVNMERIEAVAARIPKAFSVAVEFRHRSWYDEGVYALLRRLGWALVVAHHHDDPTASVHVDTGVDFMYVRLHGPIGLHIGDYGPVILSQWAERVVDYICGGVVSAAAADQSQPMAVNAHGREVYFFFNNSDSHVGGTTSSTVDATFLAQRVGELLAEKSRSCMVADSQSNSCSDVDVVTIISE | soluble
3 | MAHHHHHHMKRTLSLGIEGSANKIGVGVVDQSGTVLSNVRETYITPPGSGFLPRETAIHHSQHVLQVVQRAMHDAAVTPADIDIISYTKGPGMGGPLSVGCTVAKTLSLLWGKPLVGVNHCVGHIEMGRVVTKSENPVVLYVSGGNTQVIAYADHRYRIFGETIDIAVGNCLDRVARLLNISNDPAPGYNIEQKAKKGKCYIRLPYTVKGMDMSFTGILSYIEQLVHHPQFSDSDVREMSKKRHKAAPSLTSMPVPPGETLNTDDICFSLQETIFAMLVEVTERAMSQIKTSDVLIVGGVGCNRRLQEMMQLMAAERGGRCFGMDQRYCIDNGCMIAYAGLLQYLSGSFTTMAEATVTQRFRTDEVYVTWRD | not soluble
4 | MAHHHHHHMKVKKKIVKKINKNSNVKIYKSSKHVNEVNNNTLTNNNEVKQNNEYYESFFIPKNLTEFNFKDNDKQLYYLMSLLNEIHDIFYIMLEQFKRKETNDENRDDQIYNYFLRYPVVRTILTQYRKQVLKGFTFNISLLSDDIKRSDFMDNIVKFGGLINNQDYNHLLTVNTFIENENIKNVSTSNLMWLERALYTWK | not soluble
5 | MAHHHHHHMKYTEITIDDGAYAKIFMHSIKYSCDDVCGILIGKYLSSNEKKKKCLITNYIPLFHTHILSPYLNLAFTLVENYYKDKDERIIGYFHISSDDSKNSDIENIKVCELISEKLIKNYNDAFVCLLEFSKYVNDEDNCLNIFMKNDKSNWEKGNVVISNKNKEFLKKNISNQHYLNIYDFDDHLNSMKCDFMNPDLFNNVS | not soluble
6 | MAHHHHHHMLAAIQGFGTRVAARTAGQALRRGLGVVPLRRCCPFRCASSASLPSDVEVHQGSDDYRHSDDAFTLSTEVLGTAEEKATLDEDEFDELEAASQELHDLCYALIAHLRCADPEANKALFERRVQRAFREPKPEQYRRLLHGHGDRSLRRRNNYRTRKDFQEAHRLYLQWCDKLLLLLTQPVLDRLVKSAGKGHRDLRTDGVHRYRRPLERATWRSFPHRWFKHAPFEVQQLRADIPESAVLNTRFYRDHATLRYLFTLMEPQHAFREKIERRVMDLTQRYDPLRKSIE | not soluble
7 | MAHHHHHHMLFRTIRHFDLRRPTLMELVRELRFRTEAPIADCCAALKEANENMDRALEVLRNKGLAKAVKKGSRVTEHGSVVACVGETFGAAIVTVCSETDFAARSLQFQRVCGTVMETLRTQIISTEGTALDDCAAVHRLLTDAAAEQIQATIAVLGENVTIKSIQPLRFAPHVAEHISIGAYTHGTLSVQNVGRVAGVVAVSRTDPSARVPEEKLVDVARHFVACSGAEGSYAHQNFFGTEETVGQWLKRHGLRFSSSLVVDFGKEPIIHTAPQPVAGTK | soluble
8 | MAHHHHHHMLLKALKASFEANKRVYESVLLTFKGVDGYDVYNCSVPFSYKGKTHIYGRVEKRDIWAASHVRLFEETGKDEFTAVPELSWELEDPYIAKINNEMIFGGTRVRKNGNAILSYYGYFYRGTPVELNYFTTGPDYMKDIRVVPLQDGRLGVFSRVRTRAEVYVGFSTVDTIDHLTTEVIATAKAIDFIRPGTWGGVNQAYLLSSGKIGCIGHFAYNDTKPSGEPLMVYINISFVFDAETRQLDTEHVIGTKSCYPACPAKLPVLEDCVFASGIVMRSDGKCDLYSGLGDTHEGRITIDYPFHGYGNIVGQMIF | not soluble
9 | MAHHHHHHMLNILSYSKLFSSCGRQAVTCPKGCNSYRHVSTGSDECLFTDGRASMGREFTLQPVEMEPVFKVHRPYSSSNCDNPISEDDLPYECGASSDCNTRSSTLRERAVCDEPLAKGLQNTTASTPYRVSWYERGAVSPSKRFVYWAFRRLWDLPPDAREYYRRMLYQEVRAARYVNQTWDCFMMVVDGYRKGKWILKKYGIKIDEGLIPKPYNNFWEETTHEERVWAHRRSHQMKDLQALQREDDNLVFGAHIMDRREVTYGSVKNLQTGMQGGTPVHAHDLPAPFEADVKMSLHEEDISSALMSSIEDDKLWNPVLRSRVHNKLARDEAELYGFEDEDDGDDRS | not soluble
10 | MAHHHHHHMLRGVTIKCGNVTNAVRVPSRFISMAPTRNEEKATQKRNKWEYILSLDEALYLSKEMGIKTTTEVQKIVMRSPPFSPDMSPFLIDNFLCSANRGSHSDEIAQIDQKLKALEERGDNSQESEKGEVQVALHNNEMNDTAQNREEDIINKILIDKFNKKRGKTFIHNDMEWLEESEGIGTNKRSSAYVYIKRGSGIVKVNDEEDLYIRWPYFYNRMDVLEPFYVTNTACVFDVFIKLKGGGISGQSKAARLAVGRALLNACPLIYDELKQHHILYEDMRQKLPKMPGRKKSRAMKQWSKR | not soluble
11 | MAHHHHHHMLTKDADCEKSQQQKLEEDIKSPCTPSFHWVSDEDPKSDRATNHGCAKPLDWSPQTPETPPMSVAELRVTTVADTSETETTSESATHGNELRANEGESSASGTLEKPAGGVAAAGGAAPAAVPQKTEERGSSVPLKHKRSYGASDAVSSSSCHVDALGDLAGSVRQHHPTSTHTLDTSSSNGVGDAAKHAVAAGHVDESLPPPLSGVFFPFTACDAVTTASLVTLISSYCDVLTLVQLMRVNRSAHLLATSDAVWKPLLVSMNLPPLLAAYERDNDYYDFFVKDIITTRALHGHYTFQAANAASGSRESVSTTSGSRSAVMNRNYVSRDEDSLQDDIFNIASLQLLISAASLGQSNHLIGRVQLLITYKNESMEVLQGSCRFSVHRRCFSLCCSAFGTVKRGPVFTVAVATVTKPWANEGFQHFREHKNGIRLVMAPVLWEGPSPGSQITENDILVVSRPKPVPSLITSTTGSAAANSSLGAPTASRG | not soluble
12 | MAHHHHHHMLYSSIRYGRNCTGTNETVKPLGPCVTPLGTILGVFNGVFGYSNCNDSYVSTELRYINLTVPELNNETGQLTYISKQFYTGLAWQCVEYARRYWMQRGTPQPAYFDSVLGAADVWNLTFVRLLSNASITLPLRRYWNGDRVTDNHQIPAIGDIIIYPVQDGGFPYGHVAVIANVELSTHGAIYVAEQNWANAVWSSPHHNYTRRIPMFYDMLTSTITLDDSEHQIIGWMRYG | not soluble
13 | MAHHHHHHMMQPHSQTRAFYCCDDEDKEGTDELLGELLFGADGRRGTDLSSTRCPPPAAPPASLDIAAPASAAATGSGAELPRLRYSRPPPHLTQTTLDLGHAEPTMATRCLLCRMLYSPENDEDAALHRRFCRGGRLRRRDRGPYDAPSSFTGACRSRRARTETAASPLASLSSPAAVAVHMLEELNGAGLGHSPSPLVANTTATVRRGGPRRRESGARGVAKATYTATDTLNTAADATVSLCTCVLRPRSSSSSSPHLSSPLAVFRISLNACGVADSKGGCTALRLLELLDFTPVVLRAAAERDVAPQTASSSVLCGNVPVVPSVRDSAASTVHVVCVVDTVLRLLLCAVVGEPRSREQDPELCVERRADGATVCSTRRNFTHGDVAGLWVLSPAELSAAQTAWEKSTAAPFASTRQALEVFFGTRAGGGAPSSAQSHAAHVTEKAHERCQQAAGVALHALAQYLVYGSSLCPSRQLSYSQAALAAAERMGAGFMEQCLAVASSCYLAGATPTPREDVGELQPLYIHGDSDDGGSDSDDANEDAKGVIGE | not soluble
14 | MAHHHHHHMNAMYSADQIHVPPELGTIMKQYTKAVMRDKPTDLYKYSANFFAILSGYAAPFDSEGQLMENGVQEASSRSTVPISFGSEKEENAGSQDPTDILLRRYDRTGTGYMDPAELPQLLAELRMNLSLDEKDVVSAEDILAALPSACDQIDLLELRNLLLESMGD | soluble
15 | MAHHHHHHMNKNFAQILEDFISDGSRKHRGHGDDGANEENVPHFINQDGSNLFNDDIGKKFEKKNFFKYTEYSLSSLYMSDNQIPLEEDPKFETFINVITKASDVNNEYKWVDDYFKFEVKEEMNILTPRSQDRDFLFRKYLQPNQLKNICLLRKYEQAAISKTPEKNKVDAKIVSEYIVHDSYRQIMKALNFKWSHRIFTKARIFHSKYGNSDHIVILVMRHYKDENFLHPLFHDRALVQIKSYLNDNKHADMTQKNLLNYTEVFKPYVSLRKVDSNFVEQIKDRYYGAF | soluble
16 | MAHHHHHHMNKTKIESSYFTYQNNHSKIGNPILYKGEVIGMEIIDIRVKDDVEGLFNVCSCYLDNEHHAYNKCSESDIHYMQISSIRIIIKIVHNINILTGKKLHINLQDYVTPYPIKSAFIIKKVEHYSCNNINNKSFNEIQEHFYNNEKKLKFYNIFLYETDLQEFKEDIIFENPGMYLLCYTSNDSQSEYSAELSTILVNGNY | not soluble
17 | MAHHHHHHMNRLTNTNKGYTTNKEYISNNAQKNICTINYGQTYSNILNDEEKEKILQQYIYTLSHLSIIDIDREKDISLNISLLLKACLASHNYIKNVEIYTSQIKNQDICSFIYENRTDFEDFVNTHILKYIEFFNKDKIEDTLQSYIKDKILYDNELNIFNIIKNNNIELRKDILQDISFECIRLNKIIQYSLAVNKLDLFSYHIIFKIFMYFKTDQFYYHLFLNNIQKIKYYYSIKNITDQHKEIIYKIVDKYLYIIHYMNNMYQNRDIKNV | not soluble
18 | MAHHHHHHMNRSSSTSVNKDNVLQLTYYEIFSLDEVAESIDLQALHRAYRRFALLFHPDKDASPEAREAFLRVKLAAETLSDPIKRQEYNEQLRREAHEQREVKEQQRECGVGEEAIMAEMILRQKEAESLAKSAAANKEAAEREAAAKKMINELTNALTTPFKQMETALVSEWDIDEGLLDMKVNEIRLLLQKLHNLSCHREGRKGGGGAMGFSSGSEALPTAVKRTREESGVNITA | not soluble
19 | MAHHHHHHMPGKRKRVQGDDNTESQASAVPQGDGQTRARPESHGDTNQPAATHIRVEEPRQPQWTLESRLEDVLLEGKERITNMRLNDFLRNYFDGRGVEEFNENVYMKYFLISPNEFIKDEVLLSTIKVSPPYQELKKEREEFYMLLEASNKLKKECIITLEQWSNFERKDTVTPLARAQINTAFSRVLREERWEAEERQRRERQEMGIDVSTRIKYAVLKGRVRVNKMKLNDFLTMELDGRGVGSANWNFLLRDFFICSTKYIYDVFLLLKIQASDRYNTMERAVRDEMDMEEDVNRLYKNGVDNLLKWLVAAAEVKANVHEVTKRFLDAAAEEAREPKKSSAPMKLEGCYESVYNASWHHFVEVPDGEGTVMEVREGEPPRSWTYKAVGDTLERNDGVEQSGAPRPRLMVLTSDKGWPYTWRRMDPLVAAM | not soluble
20 | MAHHHHHHMPKIRPGMKRPPPGFEKINDKLDEYDAEMRLALSEDPSQAELPVPSKRKDKQNKVEATKDKHAQSVQRGDGGVAGHSDGELDKPEPPLWRVARINRERTRYVFNACFRERIIAEEVLDYCCEMNFIDAGLVRRWSLAGYERLCCNTCCLPGAASEAARMVNKFANRDKKDRRTNGNDDTGGTCICRVPDEKRLAKAFTRCMVCGCSGCGSGGKRKHDTEEKDSVSDMKKVRTDDYEVKSGK | not soluble
